Article PMC2692910

Target: αB11.4, α-crystallin domain construct of human αB-Crystallin (human) (UniProt P02511)
Experiment: 15N NMR relaxation

stoichiometry N: 2
Substance: αB11.4, α-crystallin domain construct of human αB-Crystallin (from UniProt P02511 57-158) (domain or fragment)
